Results as given in patent US20250376533A1 (FUTUREGEN BIOPHARMACEUTICAL BEIJING, published 2025).
Read-outs that look alike come from different tables or passages of the source.

T1: rat CD40 antigen (ACROBiosystems) (rat, UniProt A6JXD6 20-193)
T1 construct: Bought antigen coated on ELISA plates; construct not described
T1 sequence: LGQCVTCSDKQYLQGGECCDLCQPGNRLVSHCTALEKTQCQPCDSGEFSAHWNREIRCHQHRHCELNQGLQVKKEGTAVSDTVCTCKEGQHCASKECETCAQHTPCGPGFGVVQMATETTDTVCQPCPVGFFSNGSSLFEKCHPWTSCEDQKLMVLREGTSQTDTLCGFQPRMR

B1: anti-PD-L1/CD40 bispecific antibody 1653 (bispecific antibody, human IgG2, kappa)
light: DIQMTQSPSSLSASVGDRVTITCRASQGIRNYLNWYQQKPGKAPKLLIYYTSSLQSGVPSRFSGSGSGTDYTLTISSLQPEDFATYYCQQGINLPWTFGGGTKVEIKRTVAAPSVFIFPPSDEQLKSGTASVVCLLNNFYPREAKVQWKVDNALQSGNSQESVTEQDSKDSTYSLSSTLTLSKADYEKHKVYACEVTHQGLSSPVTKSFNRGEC
heavy: EVQLVESGGGLVQPGGSLRLSCAASGFTFSDYYMSWVRQAPGKGLEWVGFIRNKANAYTTEYAASVKGRFTISRDNSKSTLYLQMNSLRAEDTAVYYCARYGGLKKGWYFDLWGQGTLVTVSSASTKGPSVFPLAPCSRSTSESTAALGCLVKDYFPEPVTVSWNSGALTSGVHTFPAVLQSSGLYSLSSVVTVPSSNFGTQTYTCNVDHKPSNTKVDKTVERKCCVECPPCPAPPVAGPSVFLFPPKPKDTLMISRTPEVTCVVVDVSHEDPEVQFNWYVDGVEVHNAKTKPREEQFNSTFRVVSVLTVVHQDWLNGKEYKCKVSNKGLPAPIEKTISKTKGQPREPQVYTLPPSREEMTKNQVSLTCLVKGFYPSDIAVEWESNGQPENNYKTTPPMLDSDGSFFLYSKLTVDKSRWQQGNVFSCSVMHEALHNHYTQKSLSLSPGGGGGSGGGGSGGGGSGEVQLVESGGGLVQPGGSLRLSCAASGFTFDYYTQCWFRQAPGKEREWVSCISSSEGSTYYADSVKGRFTISRDNSKNTVYLQMNSLKTEDTAVYYCAARKGGPLTIENFFDYWGQGTQVTVSS
notes: First polypeptide chain = anti-CD40 light chain; second polypeptide chain = anti-CD40 heavy chain with the 1541 VHH joined to its C-terminus by a G4S linker
B2: anti-PD-L1/CD40 bispecific antibody 1605 (bispecific antibody, human IgG2, kappa)
light: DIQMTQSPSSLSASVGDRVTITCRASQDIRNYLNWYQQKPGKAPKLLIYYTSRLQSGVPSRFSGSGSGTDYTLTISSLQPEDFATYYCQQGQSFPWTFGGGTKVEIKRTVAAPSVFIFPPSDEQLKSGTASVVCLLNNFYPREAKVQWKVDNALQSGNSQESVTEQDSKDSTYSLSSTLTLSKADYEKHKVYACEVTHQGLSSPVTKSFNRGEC
heavy: EVQLVESGGGLVQPGGSLRLSCAASGFTFSNYYMSWVRQAPGKGLEWVAFIRNKANAYTTEYAASVKGRFTISRDNSKSTLYLQMNSLRAEDTAVYYCARYGGIRVGWYFDLWGQGTLVTVSSASTKGPSVFPLAPCSRSTSESTAALGCLVKDYFPEPVTVSWNSGALTSGVHTFPAVLQSSGLYSLSSVVTVPSSNFGTQTYTCNVDHKPSNTKVDKTVERKCCVECPPCPAPPVAGPSVFLFPPKPKDTLMISRTPEVTCVVVDVSHEDPEVQFNWYVDGVEVHNAKTKPREEQFNSTFRVVSVLTVVHQDWLNGKEYKCKVSNKGLPAPIEKTISKTKGQPREPQVYTLPPSREEMTKNQVSLTCLVKGFYPSDIAVEWESNGQPENNYKTTPPMLDSDGSFFLYSKLTVDKSRWQQGNVFSCSVMHEALHNHYTQKSLSLSPGGGGGSGGGGSGGGGSGEVQLVESGGGLVQPGGSLRLSCAASGFTFDYYTQCWFRQAPGKEREWVSCISSSEGSTYYADSVKGRFTISRDNSKNTVYLQMNSLKTEDTAVYYCAARKGGPLTIENFFDYWGQGTQVTVSS
notes: as for B1
B3: anti-CD40 monoclonal antibody 1654CD (antibody, human IgG2, kappa, V domains shown)
VH: EVQLVESGGGLVQPGGSLRLSCAASGFTFSNYYMSWVRQAPGKGLEWVGFIRNKANAYTTEYAASVKGRFTISRDNSKSTLYLQMNRLRAEDTAVYYCARYGGLKVGWYFDLWGQGTLVTVSS
VL: DIQMTQSPSSLSASVGDRVTITCRASQSISNYLAWYQQKPGKAPKLLIYAASSLQSGVPSRFSGSGSGTDYTLTISSLQPEDFATYYCQQGSSYPWTFGGGTKVEIKR
B4: anti-CD40 monoclonal antibody 1655CD (antibody, human IgG2, kappa, V domains shown)
VH: EVQLVESGGGLVQPGGSLRLSCAASGFTFSNYYMSWVRQAPGKGLEWVGFIRNKANAYTTEYAASVKGRFTISRDNSKSTLYLQMNSLRAEDTAVYYCARYGGLKIGWYFDLWGQGTLVTVSS
VL: DIQMTQSPSSLSASVGDRVTITCRASQTISSYLNWYQQKPGKAPKLLIYYTSTLQSGVPSRFSGSGSGTDYTLTISSLQPEDFATYYCQQGNAYPWTFGGGTKVEIKR

Columns and labels:
[1] = biological target: T2, CD40 on HEK-Blue CD40L cells (InvivoGen) (UniProt P25942 21-277, limits assumed); test: flow cytometry, competition with 10 nM Biotin-CD40L on HEK-Blue CD40L cells
T2 construct: whole, on cells; also called HEK-Blue CD40L cells that highly express CD40
Protocol: The blocking effect of bispecific antibodies on CD40/CD40L binding was tested using HEK-Blue CD40L cells that highly express CD40. The specific method is as follows: HEK-Blue CD40L cells were collected and resuspended in pre-cooled PBS containing 2% FBS at a density of 1E7 cells/mL, and then added to a 96-well plate at 50 μL per well, i.e., 5E5 cells/well. Biotin-CD40L (FutureGen Biopharmaceutical) and serially diluted bispecific antibody were then added at 50 μL per well, with a final concentration of Biotin-CD40L of 10 nM, and the plate was incubated at 4° C. for 1 hour. The wells were washed twice with pre-cooled PBS. Streptavidin-PE (BioLegend, Cat. No. 405203) diluted in pre-cooled PBS containing 2% FBS was added, and the plate was incubated at 4° C. for 30 minutes. The wells were washed twice with pre-cooled PBS. The cells were then resuspended in pre-cooled PBS containing 2% FBS and assayed by flow cytometry.

[2] = biological target: T3, human CD40 antigen (ACROBiosystems) (human, UniProt P25942 21-193); test: bridging ELISA: coated human CD40, serially diluted bispecific antibody, detection with biotin-labeled human PD-L1 and streptavidin-HRP, OD450
T3 construct: Bought antigen coated on ELISA plates; construct not described
Protocol: Antigen human CD40 (purchased from ACROBiosystems) was coated with 1 μg/mL carbonate buffer (pH=9.6) in an ELISA plate at 100 μL per well, followed by incubation at 4° C. overnight. The wells were washed 5 times with PBST. 300 μL/well of PBST containing 1% BSA was added to block the wells, and the plate was incubated at room temperature for 1 hour. The wells were washed 5 times with PBST. […] The wells were washed 5 times with PBST. Biotin-labeled human PD-L1 (FutureGen Biopharmaceutical) diluted with PBST containing 1% BSA was added at 100 μL per well, and the plate was incubated at room temperature for 1 hour. The wells were washed 5 times with PBST. Streptavidin-HRP (BioLegend, Cat. No. 405210) diluted with PBST containing 1% BSA was added at 100 μL per well, and the plate was incubated at room temperature for 30 minutes. Colorimetric substrate TMB was added at 100 μL per well and allowed to develop color at room temperature for 10 minutes, followed by the addition of 1 M sulfuric acid to terminate the reaction. The OD_[…] was read on a microplate reader to analyze the results, and the EC₅₀ was calculated using a 4-parameter fit binding curve.

[3] = biological target: T2, CD40 on HEK-Blue CD40L cells (InvivoGen); test: cell-based or functional assay
[4] = biological target: T1, rat CD40 antigen (ACROBiosystems); test: ELISA, coated antigen
Protocol: (§1) The binding ability of bispecific antibody to human PD-L1 and human CD40, as well as the species specificity, was detected using an enzyme-linked immunosorbent assay (ELISA). The specific method is as follows: human PD-L1, cynomolgus PD-L1, rat PD-L1, mouse PD-L1, human CD40, cynomolgus CD40, rat CD40, and mouse CD40 antigens (all purchased from ACROBiosystems) were coated with 1 μg/mL carbonate buffer (pH=9.6) in an ELISA plate at 100 μL per well, followed by incubation at 4° C. overnight. The wells were washed 5 times with PBST. 300 μL/well of PBST containing 1% BSA was added to block the wells, and the plate was incubated at room temperature for 1 hour. The wells were washed 5 times with PBST. […] The wells were washed 5 times with PBST. […] The wells were washed 5 times with PBST. Colorimetric substrate TMB was added at 100 μL per well and allowed to develop color at room temperature for 10 minutes, followed by the addition of 1 M sulfuric acid to terminate the reaction. The OD_{450 nm} was read on a microplate reader to analyze the results, and the EC₅₀ was calculated using a 4-parameter fit binding curve.
(§2) These bispecific antibodies are not able to bind to rat PD-L1 and CD40 or mouse PD-L1 and CD40.

[5] = biological target: T3, human CD40 antigen (ACROBiosystems); test: ELISA, coated antigen
Protocol: as §1, §2

[6] = biological target: T4, mouse PD-L1 antigen (ACROBiosystems) (mouse, UniProt Q9EP73 19-239); test: ELISA, coated antigen
T4 construct: Bought antigen coated on ELISA plates; construct not described
Protocol: as §1, §2

[7] = biological target: T5, cynomolgus PD-L1 antigen (ACROBiosystems) (cynomolgus, UniProt G7PSE7 19-238); test: ELISA, coated antigen
T5 construct: Bought antigen coated on ELISA plates; construct not described
Protocol: as §1, §2

[8] = biological target: T6, human PD-L1 antigen (ACROBiosystems) (human, UniProt Q9NZQ7 19-238); test: ELISA, coated antigen
T6 construct: Bought antigen coated on ELISA plates
Protocol: as §1, §2

[9] = biological target: T7, mouse CD40 antigen (ACROBiosystems) (mouse, UniProt P27512 24-193, limits assumed); test: ELISA, coated antigen
T7 construct: Bought antigen coated on ELISA plates; construct not described
Protocol: as §1, §2

[10] = biological target: T8, cynomolgus CD40 antigen (ACROBiosystems) (cynomolgus, UniProt G7PG38 21-193); test: ELISA, coated antigen
T8 construct: Bought antigen coated on ELISA plates; construct not described
Protocol: as §1, §2

[11] = biological target: T9, rat PD-L1 antigen (ACROBiosystems) (rat, UniProt D4AE25 19-239); test: ELISA, coated antigen
T9 construct: Bought antigen coated on ELISA plates; construct not described
Protocol: as §1, §2

[12] = biological target: T1, rat CD40 antigen (ACROBiosystems); test: ELISA, coated antigen; remark: listed apart in the source
Protocol: as §1, with “monoclonal” for “bispecific”, “to” for “to human PD-L1 and”, “follows:” for “follows: human PD-L1, cynomolgus PD-L1, rat PD-L1, mouse PD-L1,”, “OD₄₅₀ nm” for “OD_{450 nm}”

[13] = biological target: T3, human CD40 antigen (ACROBiosystems); test: ELISA, coated antigen; remark: listed apart in the source
Protocol: as §1, with “monoclonal” for “bispecific”, “to” for “to human PD-L1 and”, “follows:” for “follows: human PD-L1, cynomolgus PD-L1, rat PD-L1, mouse PD-L1,”, “OD₄₅₀ nm” for “OD_{450 nm}”

[14] = biological target: T7, mouse CD40 antigen (ACROBiosystems); test: ELISA, coated antigen; remark: listed apart in the source
Protocol: as §1, with “monoclonal” for “bispecific”, “to” for “to human PD-L1 and”, “follows:” for “follows: human PD-L1, cynomolgus PD-L1, rat PD-L1, mouse PD-L1,”, “OD₄₅₀ nm” for “OD_{450 nm}”

[15] = biological target: T8, cynomolgus CD40 antigen (ACROBiosystems); test: ELISA, coated antigen; remark: listed apart in the source
Protocol: as §1, with “monoclonal” for “bispecific”, “to” for “to human PD-L1 and”, “follows:” for “follows: human PD-L1, cynomolgus PD-L1, rat PD-L1, mouse PD-L1,”, “OD₄₅₀ nm” for “OD_{450 nm}”

T7 sequence (P27512 24-193 limits assumed): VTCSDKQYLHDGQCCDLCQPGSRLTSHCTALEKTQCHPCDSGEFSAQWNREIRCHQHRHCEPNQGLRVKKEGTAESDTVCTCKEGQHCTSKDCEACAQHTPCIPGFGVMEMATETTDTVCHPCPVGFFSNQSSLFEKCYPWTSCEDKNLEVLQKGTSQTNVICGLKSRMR
T2 sequence (P25942 21-277 limits assumed): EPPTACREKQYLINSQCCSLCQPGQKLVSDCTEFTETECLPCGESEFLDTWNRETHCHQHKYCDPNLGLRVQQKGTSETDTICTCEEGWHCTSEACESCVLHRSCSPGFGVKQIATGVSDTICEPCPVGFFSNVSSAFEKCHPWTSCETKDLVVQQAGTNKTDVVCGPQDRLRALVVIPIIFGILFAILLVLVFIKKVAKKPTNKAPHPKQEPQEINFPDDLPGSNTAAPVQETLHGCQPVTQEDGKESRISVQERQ
T3 sequence (P25942 21-193 limits assumed): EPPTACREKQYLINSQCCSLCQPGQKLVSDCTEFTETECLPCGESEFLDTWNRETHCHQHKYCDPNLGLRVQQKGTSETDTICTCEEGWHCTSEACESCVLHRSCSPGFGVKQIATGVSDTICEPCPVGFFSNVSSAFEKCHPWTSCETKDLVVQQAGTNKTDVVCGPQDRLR
T4 sequence (Q9EP73 19-239 limits assumed): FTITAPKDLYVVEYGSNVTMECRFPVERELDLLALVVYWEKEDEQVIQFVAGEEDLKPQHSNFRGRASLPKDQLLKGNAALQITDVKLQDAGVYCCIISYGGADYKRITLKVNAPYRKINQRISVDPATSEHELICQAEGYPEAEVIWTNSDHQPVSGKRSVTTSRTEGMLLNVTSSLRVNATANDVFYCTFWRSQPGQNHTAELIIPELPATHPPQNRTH
T5 sequence (G7PSE7 entry or part of it): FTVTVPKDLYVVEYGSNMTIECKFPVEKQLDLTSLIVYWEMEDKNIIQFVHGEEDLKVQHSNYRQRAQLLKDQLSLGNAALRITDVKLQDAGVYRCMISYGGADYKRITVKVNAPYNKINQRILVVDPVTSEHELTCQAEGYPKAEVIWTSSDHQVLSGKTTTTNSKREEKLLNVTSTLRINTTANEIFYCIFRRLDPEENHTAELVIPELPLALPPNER
T9 sequence (D4AE25 entry or part of it limits assumed): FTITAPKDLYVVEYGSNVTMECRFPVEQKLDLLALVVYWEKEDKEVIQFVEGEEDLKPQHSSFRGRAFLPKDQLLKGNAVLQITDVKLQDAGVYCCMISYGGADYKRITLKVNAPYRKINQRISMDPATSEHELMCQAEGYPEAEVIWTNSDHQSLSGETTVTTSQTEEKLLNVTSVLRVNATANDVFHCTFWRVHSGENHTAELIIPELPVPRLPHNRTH
T6 sequence (Q9NZQ7 19-238 limits assumed): as the sequence (G7PSE7 entry or part of it) above, with T33A, S34A, N62S, Q68R, R82Q, L173F, A185T, I192T, L215H counted along it

| Binder | IC50 [1] | EC50 [2] | CD40 agonistic activity (A)/(B) Ratio, EC50 without over with CHO/PD-L1 [3] | CD40 agonistic activity EC50 (nM) with CHO/PD-L1 (B), SEAP reporter [3] | CD40 agonistic activity EC50 (nM) without CHO/PD-L1 (A), SEAP reporter [3] | binding result [4] | EC50 [5] | binding result [6] | EC50 [7] | EC50 [8] | binding result [9] | EC50 [10] | binding result [11] | binding result [12] | EC50 [13] | binding result [14] | EC50 [15] |
| --- | --- | --- | --- | --- | --- | --- | --- | --- | --- | --- | --- | --- | --- | --- | --- | --- | --- |
| B1 | 0.807 nM | 0.039 nM | 2.2 | 0.018 nM | 0.039 nM | no binding | 0.02 nM | no binding | 0.021 nM | 0.039 nM | no binding | 0.018 nM | no binding |  |  |  |  |
| B2 | 1.09 nM | 0.038 nM | 3.2 | 0.024 nM | 0.075 nM | no binding | 0.024 nM | no binding | 0.025 nM | 0.05 nM | no binding | 0.02 nM | no binding |  |  |  |  |
| B3 |  |  |  |  |  |  |  |  |  |  |  |  |  | no binding | 0.014 nM | no binding | 0.015 nM |
| B4 |  |  |  |  |  |  |  |  |  |  |  |  |  | no binding | 0.024 nM | no binding | 0.009 nM |
